Assay results taken from patent publication US20250154283A1 (published 2025).

T1: biotinylated cynomolgus monkey VWF cysteine knot (CK) domain construct (cynomolgus monkey, biotinylated in vitro (BirA) on the biotinylation tag; one N-glycan)
T1 construct: Expressed in HEK293 EBNA cells; disulfide-linked homodimer; also called cyno VWF CK; cyno VWF CK domain; not shown: in vitro biotinylation tag, HRV-3C site and 3 VWF residues before the CK domain
T1 chain: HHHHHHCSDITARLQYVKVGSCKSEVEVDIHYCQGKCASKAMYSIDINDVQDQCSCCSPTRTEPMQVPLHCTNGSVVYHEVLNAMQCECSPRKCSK


Columns and labels:
[1] = target: T2, biotinylated human VWF cysteine knot (CK) domain construct (human, UniProt P04275 2724-2813, biotinylated in vitro (BirA) on the biotinylation tag; one N-glycan); test: SPR, scFv captured via anti-SV5, CK domain injected, pH 5.5, apparent Kd;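 also: scFvs from crude yeast supernatants captured on chip-bound anti-SV5 antibody, Kd computed as koff divided by kon, dimeric CK construct likely makes affinity appear higher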
T2 construct: Expressed in HEK293 EBNA cells; disulfide-linked homodimer; also called human VWF CK; human VWF CK domain; not shown: in vitro biotinylation tag, HRV-3C site and 3 VWF residues before the CK domain

[2] = target: T1, biotinylated cynomolgus monkey VWF …; test: SPR, scFv captured via anti-SV5, CK domain injected, pH 7.4, apparent Kd;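 also: scFvs from crude yeast supernatants printed on an amine-coupled anti-SV5 lawn, Kd computed as koff over kon, likely overestimating affinity because the CK construct is dimeric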
[3] = target: T2, biotinylated human VWF cysteine knot …; test: as above

Kd [1] [nM] | Kd [2] [nM] | Kd [3] [nM] | Binder
1.22 | 1.03 | 1.41 | Lib6_P3_B9_scFv (scFv, VH-linker-VL; not shown: C-terminal 3xFLAG and SV5 tags) scFv: EVQLVQSGAEVKKPGASVKVSCKASGDTFSSHVISWVRQAPGQGLEWMGGINPRTGTTIYAQKLQGRGTMTTDPSTSTAYMELRSLRSDDTAVYYCARTRPWAGLDVWGQGTTVTVSSSGGSTITSYNVYYTKLSSSGTESALTQPASVSGSPGQSITISCTGTNIEYKGVSWYQQHPGKAPKLMIYGVDKRPSGVSNRFSGSKSGNTASLTISGLQAEDEADYYCQAWGTSTAIFGGGTKLTVL
1.82 | 3.16 | 2.22 | 11485_Lib1_scFv (scFv, VH-linker-VL; not shown: C-terminal 3xFLAG and SV5 tags) scFv: QVQLVQSGAEVKKPGASVKVSCKVSGAPSAAIIHWVRQAPGKGLEWMGGFTQIFGTAIYAQKFQGRVTMTEDTSTDTAYMELSSLKSEDTAVYYCAREGIGGHDAFDIWGQGTMVTVSSSGGSTITSYNVYYTKLSSSGTDIQMTQSPSSVSASVGDRVTITCRASQDISKNLAWYQQKPGKAPKLLIYKASKLESGVPSRFSGSGSGTDFTLTISSLQPEDFANYYCLHDYTYPPTFGGGTKVEIK
1.32 | 0.017 | 1.41 | Lib6_P3_A1_scFv (scFv, VH-linker-VL; not shown: C-terminal 3xFLAG and SV5 tags) scFv: QVQLVQSGAEVKKPGASVKVSCKVSGDTLSNYAIHWVRQAPGKGLEWMGGINPNAGTTIYAQKFQGRVTMTEDTSTDTAYMELSSLKSEDTAVYYCARDSSSWCPVGYYYYYMDVWGKGTTVTVSSSGGSTITSYNVYYTKLSSSGTDIQMTQSPSSVSASVGDRVTITCRASQSIGDFLAWYQQKPGKAPKLLIYDASHLQTGVPSRFSGSGSGTDFTLTISSLQPEDFANYYCQQTSTIPPTFGGGTKVEIK
0.659 | 1.96 | 1.72 | Lib6_P3_E10_scFv (scFv, VH-linker-VL; not shown: C-terminal 3xFLAG and SV5 tags) scFv: QVQLVQSGAEVKKPGASVKVSCKVSGDTLSNYAIHWVRQAPGKGLEWMGGINPNAGTTIYAQKFQGRVTMTEDTSTDTAYMELSSLKSEDTAVYYCARDSSSWCPVGYYYYYMDVWGKGTTVTVSSSGGSTITSYNVYYTKLSSSGTDIQMTQSPSSVSASVGDRVTITCRASQSIGDFLAWYQQKPGKAPKLLIYDASHLQTGVPSRFSGSGSGTDFTLTISSLQPEDFANYYCQQTSTIPPTFGGGTKVEIK
0.604 | 0.305 | 2.05 | Lib4_P2_A2_scFv (scFv, VH-linker-VL; not shown: C-terminal 3xFLAG and SV5 tags) scFv: QVQLVQSGAEVKKPGASVKVSCKVSGDTLSNYAIHWVRQAPGKGLEWMGGINPNAGTTIYAQKFQGRVTMTEDTSTDTAYMELSSLKSEDTAVYYCARDSSSWCPVGYYYYYMDVWGKGTTVTVSSSGGSTITSYNVYYTKLSSSGTDIQMTQSPSSVSASVGDRVTITCRASQSIGDFLAWYQQKPGKAPKLLIYDASHLQTGVPSRFSGSGSGTDFTLTISSLQPEDFANYYCQQTSTIPPTFGGGTKVEIK
2.12 | 0.48 | 1.89 | Lib4_P2_B1_scFv (scFv, VH-linker-VL; not shown: C-terminal 3xFLAG and SV5 tags) scFv: QVQLVQSGAEVKKPGASVKVSCKVSGDTLSNYAIHWVRQAPGKGLEWMGGINPNAGTTIYAQKFQGRVTMTEDTSTDTAYMELSSLKSEDTAVYYCARDSSSWCPVGYYYYYMDVWGKGTTVTVSSSGGSTITSYNVYYTKLSSSGTDIQMTQSPSSVSASVGDRVTITCRASQSIGDFLAWYQQKPGKAPKLLIYDASHLQTGVPSRFSGSGSGTDFTLTISSLQPEDFANYYCQQTSTIPPTFGGGTKVEIK
0.621 | 1.17 | 2.79 | 965_Lib4_scFv (scFv, VH-linker-VL; not shown: C-terminal 3xFLAG and SV5 tags) scFv: QVQLQESGPGLVKPSQTLSLTCTVSGASFGDNYWSWIRQPPGKGLEWIGYIDTSGSSDYNPSLKSRVTMSVDTSKNQFSLKVNSVTAADTAVYYCARDALGYYYMDVWGKGTTVTVSSSGGSTITSYNVYYTKLSSSGTEIVMTQSPATLSLSPGERATLSCRASQGISGRLAWYQQKPGQAPRLLIYDASARASGIPARFSGSGSGTDFTLTISSLEPEDFAVYYCQQYGTSPYTFGGGTKVEIK
3.87 | 0.803 | 1.84 | 2301_Lib4_scFv (scFv, VH-linker-VL; not shown: C-terminal 3xFLAG and SV5 tags) scFv: QVQLQESGPGLVKPSQTLSLTCTVSGASISTSDHSWSWIRQPPGKGLEWIGYIRDTGSTDYNPSLKSRVTMSVDTSKNQFSLKVNSVTAADTAVYYCAISSTERWKQSFGVDTEYFQHWGQGTLVTVSSSGGSTITSYNVYYTKLSSSGTEIVMTQSPATLSLSPGERATLSCRASRYVSTNLAWYQQKPGQAPRLLIYDAVTRAPGIPARFSGSGSGTDFTLTISSLEPEDFAVYYCQQYHSLPLIFGGGTKVEIK
3.36 | 0.733 | 2.7 | Lib4_P2_A10_scFv (scFv, VH-linker-VL; not shown: C-terminal 3xFLAG and SV5 tags) scFv: QVQLQESGPGLVKPSQTLSLTCTVSGASLGHQYWSWIRQPPGKGLEWIGYIDTSGSTDYNPSLKSRVTMSVDTSKNQFSLKVNSVTAADTAVYYCARVANYYYYMDVWGKGTTVTVSSSGGSTITSYNVYYTKLSSSGTEIVMTQSPATLSLSPGERATLSCRASQSVSNRLAWYQQKPGQAPRLLIYDASNRATGIPARFSGSGSGTDFTLTISSLEPEDFAVYYCQQYFITPSTFGGGTKVEIK
0.127 | 2.05 | 2.62 | 399_Lib1_scFv (scFv, VH-linker-VL; not shown: C-terminal 3xFLAG and SV5 tags) scFv: QVQLVQSGAEVKKPGASVKVSCKVSGITFTSDYIHWVRQAPGKGLEWMGGMNPYSNKAIYAQKFQGRVTMTEDTSTDTAYMELSSLKSEDTAVYYCATGGLRIAARTSYFDYWGQGTLVTVSSSGGSTITSYNVYYTKLSSSGTDIQMTQSPSSVSASVGDRVTITCRASMDIAGSLAWYQQKPGKAPKLLIYDTSFRATGVPSRFSGSGSGTDFTLTISSLQPEDFANYYCQQYDNPPRLTFGGGTKVEIK
1.93 | 0.387 | 1.48 | Lib4_P2_A3_scFv (scFv, VH-linker-VL; not shown: C-terminal 3xFLAG and SV5 tags) scFv: QVQLQESGPGLVKPSQTLSLTCTVSGVSLSTSDYSWSWIRQPPGKGLEWIGYISPPGRSDYNPSLKSRVTMSVDTSKNQFSLKVNSVTAADTAVYYCARHSSSGWYSTYDFDSWGQGTMVTVSSSGGSTITSYNVYYTKLSSSGTEIVMTQSPATLSLSPGERATLSCRASQNIHSNLAWYQQKPGQAPRLLIYGATTRATGIPARFSGSGSGTDFTLTISSLEPEDFAVYYCQQSYTTPLTFGGGTKVEIK
0.829 | 1.51 | 1.5 | 487_Lib1_scFv (scFv, VH-linker-VL; not shown: C-terminal 3xFLAG and SV5 tags) scFv: QVQLVQSGAEVKKPGASVKVSCKVSGYTFTSHIIHWVRQAPGKGLEWMGGMNPYSNKAIYAQKFQGRVTMTEDTSTDTAYMELSSLKSEDTAVYYCARDASDYGDYGYYYYYMDVWGKGTTVTVSSSGGSTITSYNVYYTKLSSSGTDIQMTQSPSSVSASVGDRVTITCRASQSIGDFLAWYQQKPGKAPKLLIYDASHLQTGVPSRFSGSGSGTDFTLTISSLQPEDFANYYCQQTSTIPPTFGGGTKVEIK
0.872 | 0.435 | 2.72 | Lib6_P3_A8_scFv (scFv, VH-linker-VL; not shown: C-terminal 3xFLAG and SV5 tags) scFv: EVQLVQSGAEVKKPGASVKVSCKASGYRFTNYDISWVRQAPGQGLEWMGGINPSSGITIYAQKLQGRGTMTTDPSTSTAYMELRSLRSDDTAVYYCARGAAYGDYLDYWGQGTLVTVSSSGGSTITSYNVYYTKLSSSGTESALTQPASVSGSPGQSITISCTGTNLGEKYVSWYQQHPGKAPKLMIYSTSQRPSGVSNRFSGSKSGNTASLTITGLQAEDEADYYCSSYTASSTPGLVFGGGTKLTVL
1.4 | 1.21 | 1.77 | 96_Lib4_scFv (scFv, VH-linker-VL; not shown: C-terminal 3xFLAG and SV5 tags) scFv: QVQLQESGPGLVKPSQTLSLTCTVSGESFSTSYWSWIRQPPGKGLEWIGYITHSGYTDYNPSLKSRVTMSVDTSKNQFSLKVNSVTAADTAVYYCARGGRFPFWYFDLWGRGSLVTVSSSGGSTITSYNVYYTKLSSSGTEIVMTQSPATLSLSPGERATLSCRASRSIGSNLAWYQQKPGQAPRLLIYGATTRATGIPARFSGSGSGTDFTLTISSLEPEDFAVYYCQQYKNDATFGGGTKVEIK
1.91 | 1.36 | 2.22 | 4956_Lib1_scFv (scFv, VH-linker-VL; not shown: C-terminal 3xFLAG and SV5 tags) scFv: QVQLVQSGAEVKKPGASVKVSCKVSGYTLTSNYIHWVRQAPGKGLEWMGGFNPSSGSTIYAQKFQGRVTMTEDTSTDTAYMELSSLKSEDTAVYYCARTLYDFWSGYLDAFDIWGQGTMVTVSSSGGSTITSYNVYYTKLSSSGTDIQMTQSPSSVSASVGDRVTITCRASQNIRSSLAWYQQKPGKAPKLLIYAASNLEPGVPSRFSGSGSGTDFTLTISSLQPEDFANYYCQQYEDTPLTFGGGTKVEIK
0.731 | 0.758 | 1.76 | 256_Lib8_scFv (scFv, VH-linker-VL; not shown: C-terminal 3xFLAG and SV5 tags) scFv: EVQLVESGGGLVQPGRSLRLSCAASGFTVSSNAMHWVRQAPGKGLEWVSAIGTFADTDYADSVEGRFTISRDNAKNSLYLQMNSLRAEDTAVYYCAREGAAAGTNFDYWGQGTLVTVSSSGGSTITSYNVYYTKLSSSGTDIQMTQSPSSLSASVGDRVTITCRASQGIRSYLAWYQQKPGKAPKLLIYGASTLEGGVPSRFSGSGSGTDFTLTISSLQPEDVATYYCQQSYSTPPKFGGGTKVEIK
1.41 | 0.974 | 1.76 | 4035_Lib1_scFv (scFv, VH-linker-VL; not shown: C-terminal 3xFLAG and SV5 tags) scFv: QVQLVQSGAEVKKPGASVKVSCKVSGYAFPSYGIHWVRQAPGKGLEWMGGISAFTGDTIYAQKFQGRVTMTEDTSTDTAYMELSSLKSEDTAVYYCASGPTNVLTGLMESAEYFQHWGQGTLVTVSSSGGSTITSYNVYYTKLSSSGTDIQMTQSPSSVSASVGDRVTITCRASQGISRDLAWYQQKPGKAPKLLIYGASGRATGVPSRFSGSGSGTDFTLTISSLQPEDFANYYCQQSYITPTTFGGGTKVEIK
